Consider two proteins from paper PMC3266934, “The Murine Coronavirus Hemagglutinin-esterase Receptor-binding Site: A Major Shift in Ligand Specificity through Modest Changes in Architecture” (PLoS Pathogens, 2012).

The data set concerns the molecule itself. The data set can be described thus: crystal structure; crystals of the thrombin-released ectodomain, space group P2(1)2(1)2(1), two HE molecules in the asymmetric unit; free HE (2.1 Å) and HE^0 soaked with a sialic acid receptor analogue (2.5 Å); 0.2 M KH2PO4, 0.2 M sodium malonate, 15% PEG3350, 18°C.

B1: MHV-S HE ectodomain (mouse hepatitis virus strain S hemagglutinin-esterase, residues 25-403), released from HE-Fc by thrombin cleavage (domain or fragment)
chain: FNEPLNIVSHLNDDWFLFGDSRSDCTYVENNGHPKLDWLDLDPKLCNSGRISAKSGNSLFRSFHFIDFYNYSGEGDQVIFYEGVNFSPSHGFKCLAYGDNKRWMGNKARFYARVYEKMAQYRSLSFVNVSYAYGGNAKPTSICKDKTLTLNNPTFISKESNYVDYYYESEANFTLQGCDEFIVPLCVFNGHSKGSSSDPANKYYTDSQSYYNMDTGVLYGFNSTLDVGNTVQNPGLDLTCRYLALTPGNYKAVSLEYLLSLPSKAICLRKPKSFMPVQVVDSRWNSTRQSDNMTAVACQLPYCFFRNTSADYSGGTHDVHHGDFHFRQLLSGLLYNVSCIAQQGAFVYNNVSSSWPAYGYGHCPTAANIGYMAPVCIYD
notes: also called free MHV-S HE; not shown: Fc (human IgG1), C-terminal, cleaved
For the protein B1, the binding result was “binds”.

B2: MHV-S HE^0 ectodomain (esterase-inactive, Ser45 replaced by Ala, residues 25-403), released from HE^0-Fc by thrombin cleavage (domain or fragment)
chain: FNEPLNIVSHLNDDWFLFGDARSDCTYVENNGHPKLDWLDLDPKLCNSGRISAKSGNSLFRSFHFIDFYNYSGEGDQVIFYEGVNFSPSHGFKCLAYGDNKRWMGNKARFYARVYEKMAQYRSLSFVNVSYAYGGNAKPTSICKDKTLTLNNPTFISKESNYVDYYYESEANFTLQGCDEFIVPLCVFNGHSKGSSSDPANKYYTDSQSYYNMDTGVLYGFNSTLDVGNTVQNPGLDLTCRYLALTPGNYKAVSLEYLLSLPSKAICLRKPKSFMPVQVVDSRWNSTRQSDNMTAVACQLPYCFFRNTSADYSGGTHDVHHGDFHFRQLLSGLLYNVSCIAQQGAFVYNNVSSSWPAYGYGHCPTAANIGYMAPVCIYD
notes: not shown: Fc (human IgG1), C-terminal, cleaved
B2: the binding result is listed as “binds”.
